For assay [1], the target named is CcBurs-α (Cacopsylla chinensis). Kind of assay: non-reduced versus reduced SDS-PAGE with western blot; His-tagged subunits expressed separately or co-expressed in HEK293T, collected from the medium and purified on Ni-NTA; 12% SDS-PAGE (non-reduced) and 15% SDS-PAGE (reduced), anti-His blot.
The target of assay [2] is CcBurs-β (Cacopsylla chinensis). The assay is described as above.

For the substance CcBurs-α (natural protein), in assay [1], the stoichiometry N came out at 2.

Take CcBurs-β (natural protein): the stoichiometry N in assay [2] is 2.

The values are drawn from PMC11548876.
